Patent US6605426B1, “Compounds, methods of screening, and in vitro and in vivo uses involving anti-apoptotic genes and anti-apoptotic gene products” (priority 1998, dated 2003)

B1: pUL36AD169-early: pUL36 of an early (pre-1982) passage of HCMV strain AD169; Cys131 (protein)
chain: MDDLRDTLMAYGCIAIRAGDFNGLNDFLEQECGTRLHVAWPERCFIQLRSRSALGPFVGKMGTVCSQGAYVCCQEYLHPFGFVEGPGFMRYQLIVLIGQRGGIYCYDDLRDCVYELAPTMKDFLRNGFRHCDHFHTMRDYQRPMVQYDDYWNAVMLYRGDVESLSAEVTKRGYASYTIDDPFDECPDTHFAFWTHNTEVMKFKETSFSVVRAGGSIQTMELMIRTVPRITCYHQLLGALGHEVPERKEFLVRQYVLVDTFGVVYGYDPAMDAVYRLAEDVVMFTCVMGKKGHRNHRFSGRREAIVRLEKTPTCQHPKKTPDPMIMFDEDDDDELSLPRNVMTHEEAESRLYDAITENLMHCVKLVTTDSPLATHLWPQELQALCDSPALSLCTDDVEGVRQKLRARTGSLHHFELSYRFHDEDPETYMGFLWDIPSCDRCVRRRRFKVCDVGRRHIIPGAANGMPPLTPPHVYMNN
B2: pUL37Smyc: pUL37S fused at its C-terminus with a c-myc-epitope tag; constitutively expressed in HeLa/UL37x1#3 cells (protein)
chain: MSPVYVNLLGSVGLLAFWYFSYRWIQRKRLEDPLPPWLRKKKACALTRRSRHRLRRQHGVIDGENSETERSVDLVAALLAEAGEESVTEDTEREDTEEEREDEEEENEARTPEVNPIDAEGLSGLAREACEALKKALRRHRFLWQRRQRARMLQHNGPQQSHQ

Tests used:
HeLa cells [1] = experiment: Transient transfection apoptosis assay in HeLa cells (anti-Fas antibody+CHX or TNF-α+CHX); type: cell-based, human; settings: transiently transfected HeLa cells; anti-Fas antibody+CHX 24 h; surviving cells scored
Procedure: Tumor necrosis factor receptor 1 (TNF-R1)-mediated apoptosis was induced by exposure of HeLa and MRC-5 cells to tumor necrosis factor-α (TNF-α) (Sigma, 10-60 ng/mL)+CHX (10-30 μg/mL). Fas-mediated apoptosis was induced by exposure of cells to an anti-Fas antibody (Coulter, 7C11 antibody at 0.2-4 μg/mL)+CHX (10-30 μg/mL). The degree of cell death was determined by the visual scoring of surviving cells, in representative fields, under a phase microscope. A similar degree of cell death occurred in fibroblasts when examined 5 to 28 h after the start of exposure, or a similar degree of cell death occurred in HeLa cells when examined 9-28 h after the start of exposure. Further, a similar degree of cell death for a given reagent was produced when any concentration within the range indicated above was used.
The degree of cell death in cells transfected with an indicator plasmid expressing E. coli β-galactosidase was determined by either a β-galactosidase ELISA (Boehringer Mannheim), in accordance with the manufacturer's recommendations, or by visually scoring, under a microscope, positive blue cells, expressing β-galactosidase, after staining them with X-gal.
HeLa cells were transiently co-transfected with an expression plasmid vector, pME18S, carrying a polynucleotide sequence encoding IE1 or IE2 (FIG. 5, “IE1” and “IE2,” respectively), and a vector carrying the β-galactosidase gene (pCMVβ, Clontech). As a positive control, HeLa cells were transiently co-transfected with pCMVβ and a vector carrying a polynucleotide sequence encoding an anti-apoptotic polypeptide, such as the adenovirus E1B 19K or baculovirus p35.
Expression of IE1 (approx. 72 kDa) and IE2 (approx. 86 kDa) in the transfected HeLa cells was confirmed by Western blot analysis, by immunofluorescence visually examined under a fluorescence microscope, and by transactivation activity which led to an elevation of the vector-CMV-promoter-driven β-galactosidase expression which was increased 2- to 5-fold, as measured by a β-galactosidase ELISA (data not shown). Apoptosis was induced by incubating the transfected cells for 24 h with either TNF-α+CHX, or anti-Fas antibody+CHX. The surviving cells were stained with X-gal, a chromogenic substrate of β-galactosidase, and then the blue-stained cells were scored (FIG. 5).
To identify HCMV genes that can suppress apoptosis induced by Fas-ligation, the present inventors established a transient transfection assay in HeLa cells. The HeLa cells can be transfected at much higher efficiency than MRC-5 cells and are similar in their sensitivity towards anti-Fas antibody and TNF-α treatment. Enhanced survival of HeLa cells following anti-Fas antibody+CHX treatment was detected by elevated β-galactosidase (β-gal) levels produced by a transfected β-gal marker plasmid.
The deletion mutants were transiently expressed in HeLa cells, cultured in DMEM supplemented with 10% fetal bovine serum, and assayed for their ability to block Fas- or TNF-R1-mediated apoptosis. Transfections and apoptosis assays were performed as previously described (Goldmacher et al., 1999). Briefly, cells were transiently transfected with the expression vectors (purified with a Qiagen plasmid purification kit) using SuperFect transfection reagent (Qiagen) in accordance with the manufacturer's protocol. After 24 hours, cells were exposed to anti-Fas 7C11 antibody (Coulter, 0.5 μg/ml)+cyclohexamide (Sigma, 10 μg/ml) for 24 hours.
A genomic DNA library was cloned into pZeoSV2(+) plasmid (Invitrogen). Ten cosmids, pCM1007, pCM1015, pCM1017, pCM1029, pCM1035, pCM1039, pCM1040, pCM1052, pCM1058, and pCM1072, covering the AD169 genome (Fleckenstein et al., 1982, which is incorporated herein by reference), and pON2601 Toledo cosmid (Cha et al., 1996, which is incorporated herein by reference) containing unique HCMV sequences, were mixed in equal amounts and partially digested with Sau3AI (New England Biolabs, Beverly, Mass.). […]

pro-domain of caspase 8 = biological target: T1, pro-domain of caspase 8 (Homo sapiens, UniProt Q14790); experiment: Co-precipitation in co-transfected 293T cells (anti-HA IP, anti-myc blot); type: binding; settings: HA-tagged pro-domain
T1 construct: a truncated pro-caspase 8, containing only its HA-tagged pro-domain region; expressed in transfected cells; host or cells: 293T cells co-transfected with pUL36AD169-earlymyc or pUL36AD169-ATCCmyc
Text: (§1) Pro-caspase 8 was detected on the pUL36-containing beads (lane 4), but not on the control beads (lane 2), while the lysates from all these cells contained similar amounts of pro-caspase 8 (compare lanes 1 and 3). […] To test this hypothesis, 293T cells were co-transfected with pUL36AD169-earlymyc and with a truncated pro-caspase 8, containing only its HA-tagged pro-domain region. pUL36AD169-earlymyc is expressed by a fusion gene comprising a UL36 ORF isolated from a pre-1982 passage of CMVAD169 and the carboxy-linked myc epitope tag. The cells were lysed as above, and anti-HA antibody was used to immunoprecipitate the caspase 8 pro-domain. Anti-myc antibodies were then used to probe a Western blot for the inclusion of pUL36 with the immunoprecipitated material. Control cells were transfected with pUL36AD169-earlymyc with either the empty vector (negative control), or with HA-tagged pro-caspase 8 (positive control). Additional cells were co-transfected with the non-functional mutant pUL36AD169-ATCCmyc with either the HA-pro-domain, the empty vector or HA-pro-caspase 8.

[2] = biological target: T2, full-length pro-caspase 8 (Homo sapiens, UniProt Q14790); experiment: as above; type: binding; settings: HA-tagged pro-caspase 8
T2 construct: HA-tagged full-length pro-caspase 8 (lanes 5 and 6); expressed in transfected cells; host or cells: 293T cells co-transfected with pUL36AD169-earlymyc or pUL36AD169-ATCCmyc
Text: as §1

HeLa/UL37x1#3 cells = experiment: Dominant-negative assay: pUL37S deletion mutants in HeLa/UL37x1#3 cells, β-galactosidase ELISA; type: cell-based, human; settings: HeLa/UL37S #3 cells transfected with the empty vector; anti-Fas plus cyclohexamide 24 h
Procedure: 24 h after co-transfection, the cells were either exposed for an additional 24 h to anti-Fas antibody, in the presence of cyclohexamide (FIGS. 11A and 11B, closed bars) or left untreated (FIGS. 11A and 11B, open bars). The surviving cells were than quantified by determining the β-galactosidase levels with a β-galactosidase ELISA (Boehringer Mannheim). […] The control HeLa/pcDNA3-A cells were sensitive to Fas-mediated apoptosis, and this sensitivity was not affected by the expression of the deletion mutants.
Apoptosis was induced in the cell line HeLa/UL37x1#3 (HeLa cells transfected with UL37x1, clone No. 3), that constitutively expresses pUL37Smyc and is resistant to apoptosis, through the addition of anti-Fas antibodies and cyclohexamide to the culture medium. To identify dominant-negative mutants, HeLa/UL37x1#3 cells were co-transfected with the lacZ (encoding β-galactosidase) indicator plasmid vector, together with either an expression vector for a pUL37S deletion mutant or the empty plasmid vector, pcDNA3. […]
One day after the transfection, cells were treated with anti-Fas antibody plus cyclohexamide for 24 h. Cell survival was then assessed by measuring spectrophotometrically the level of β-galactosidase expression, as described in Example 1. […]

HeLa cells [3] = experiment: Apoptosis resistance of HeLa clones stably expressing pUL37Smyc; type: cell-based, human
Text: In a preferred embodiment, HeLa clones continuously (as opposed to transiently) express the version of pUL37s tagged with the C-terminal myc-peptide (amino acids 408-421 within the carboxy terminal domain of human c-Myc) generated by stable transfection with either an expression plasmid containing UL37S alone, or in a mixture with an expression plasmid coding for puromycin-N-acetyl-transferase such as pPUR (Clontech, Palo Alto, Calif.). Following the transfection, drug-resistant clones are selected in medium containing G418 (0.7 mg/mL) or in medium containing puromycin (1 μg/ml), and then the clones are screened for the expression of pUL36-myc-tagged and pUL37S-myc-tagged polypeptides, respectively, by Western analysis with 9E10 anti-Myc antibody (Santa Cruz Biotechnology, Inc., Santa Cruz, Calif.). In using this approach, the present inventors isolated four clones that expressed pUL37S-myc (designated as HeLa/UL37S). These clones were then used to conduct further studies reported in Example 9. Also, four G418-resistant clones of HeLa cells stably transfected with pcDNA3/myc (empty vector, control) were isolated by similar procedures, two with G418 (HeLa/G418) and two with puromycin (HeLa/puro), and used as a negative control in the Western blot analysis and experiments studying the anti-apoptotic activity of the clones.
Three transfected G418-resistant HeLa clones were isolated that stably express pUL37S myc (designated HeLa/UL37×1myc #3, #8, and #N1), as detected by Western blot analysis with the 9E10 anti-myc antibody (Evan et al., 1985, which is incorporated herein by reference) (FIG. 8A). In parallel, three HeLa clones were isolated following stable transfections with the pcDNA3 vector alone (designated HeLa/pcDNA3-A, -B, and —C). […] While virtually all of the HeLa/pcDNA3-A control cells died following an overnight exposure to anti-Fas antibody+CHX or TNF-α+CHX, only a small fraction of the pUL37Smyc-expressing cells underwent apoptosis after an overnight exposure to these agents FIG. 8B). Moreover, most of the pUL37Smyc-expressing cells continued to survive for more than 3 days of culturing in the presence of either anti-Fas antibody+CHX or TNF-α+CHX.
The present inventors tested whether pUL37S can inhibit apoptosis triggered by other stimuli. […] Thus, pUL37S is a broadly acting inhibitor of apoptosis that can inhibit or diminish cell death induced by a variety of cytotoxic agents.

T1 sequence (Q14790 1-216 limits assumed): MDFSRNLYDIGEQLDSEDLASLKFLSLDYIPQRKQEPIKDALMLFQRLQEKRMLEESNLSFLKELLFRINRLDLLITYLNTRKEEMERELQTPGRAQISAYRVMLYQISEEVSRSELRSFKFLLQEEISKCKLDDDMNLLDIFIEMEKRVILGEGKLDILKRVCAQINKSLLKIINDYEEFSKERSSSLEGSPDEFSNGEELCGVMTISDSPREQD
T2 sequence (Q14790 whole entry): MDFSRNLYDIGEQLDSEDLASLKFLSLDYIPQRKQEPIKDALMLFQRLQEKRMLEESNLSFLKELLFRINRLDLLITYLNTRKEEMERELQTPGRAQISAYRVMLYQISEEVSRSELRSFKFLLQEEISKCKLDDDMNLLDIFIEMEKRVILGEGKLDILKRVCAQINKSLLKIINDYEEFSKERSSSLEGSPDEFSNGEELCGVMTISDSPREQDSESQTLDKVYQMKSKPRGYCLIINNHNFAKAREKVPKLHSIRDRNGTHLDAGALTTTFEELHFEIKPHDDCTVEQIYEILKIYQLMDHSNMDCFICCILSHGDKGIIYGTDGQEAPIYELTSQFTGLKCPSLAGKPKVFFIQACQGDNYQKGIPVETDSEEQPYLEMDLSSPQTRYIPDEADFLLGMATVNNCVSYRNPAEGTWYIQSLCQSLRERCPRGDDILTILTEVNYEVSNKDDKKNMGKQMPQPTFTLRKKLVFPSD

Molecule	anti-apoptotic activity: protection against Fas-mediated apoptosis (HeLa cells [1])	co-precipitation with the pro-domain of caspase 8 (pro-domain of caspase 8)	co-precipitation with full-length pro-caspase 8 [2]	β-gal signal compared to untreated cells (HeLa/UL37x1#3 cells)	resistance to apoptosis induced by doxorubicin (HeLa cells [3]; doxorubicin 1, 3, and 6 μM, 24 h, trypan blue exclusion)	duration of survival in culture with apoptotic stimulus (HeLa cells [3]; in the presence of either anti-Fas antibody+CHX or TNF-α+CHX)	resistance to TNF-R1-mediated apoptosis (HeLa cells [3]; stable HeLa clones, TNF-α+CHX)	resistance to Fas-mediated apoptosis (HeLa cells [3]; stable HeLa clones, anti-Fas antibody+CHX)
B1	effective death suppressors	co-precipitated	co-precipitated					
B2				about 40%	substantially more resistant	more than 3 days	resistant	resistant
